From the DeepSol protein solubility set

Assay: soluble on expression in E. coli; label from the status in PepcDB or PDB records

| Sequence | soluble on expression in E. coli |
| --- | --- |
| MGIGKEIRLERIMNRETRKTIIVPMDHGVSSGPIEGIVNIREAVEKVAEGGANAVVLHKGMVRAGHRGRGRDIGLIVHLSASTDLSPRKNDKVLVCTVEEAIRLGADAVSIHVNIGAEGEREMLKDFGYVSKVCEEWQMPLLAMVYGRGPKIENQYDPKVVAHCARVGAELGADIVKVPYTGDPETFKLAIEGSPIPVVIAGGPKMKSEREVLEMVQGAMQAGAAGLSIGRNIFQAKDPAKMVRAMSLIVHEGKSVEEAFEILK | not soluble |
| MGKALVIVESPAKAKTINKYLGSDYVVKSSVGHIRDLPTSGSAAKKSADSTSTKTAKKPKKDERGALVNRMGVDPWHNWEAHYEVLPGKEKVVSELKQLAEKADHIYLATDLDREGEAIAWHLREVIGGDDARYSRVVFNEITKNAIRQAFNKPGELNIDRVNAQQARRFMDRVVGYMVSPLLWKKIARGLSAGRVQSVAVRLVVEREREIKAFVPEEFWEVDASTTTPSGEALALQVTHQNDKPFRPVNKEQTQAAVSLLEKARYSVLEREDKPTTSKPGAPFITSTLQQAASTRLGFGVKKTMMMAQRLYEAGYITYMRTDSTNLSQDAVNMVRGYISDNFGKKYLPESPNQYASKENSQEAHEAIRPSDVNVMAESLKDMEADAQKLYQLIWRQFVACQMTPAKYDSTTLTVGAGDFRLKARGRILRFDGWTKVMPALRKGDEDRILPAVNKGDALTLVELTPAQHFTKPPARFSEASLVKELEKRGIGRPSTYASIISTIQDRGYVRVENRRFYAEKMGEIVTDRLEENFRELMNYDFTAQMENSLDQVANHEAEWKAVLDHFFSDFTQQLDKAEKDPEEGGMRPNQMVLTSIDCPTCGRKMGIRTASTGVFLGCSGYALPPKERCKTTINLVPENEVLNVLEGEDAETNALRAKRRCPKCGTAMDSYLIDPKRKLHVCGNNPTCDGYEIEEGEFRIKGYDGPIVECEKCGSEMHLKMGRFGKYMACTNEECKNTRKILRNGEVAPPKEDPVPLPELPCEKSDAYFVLRDGAAGVFLAANTFPKSRETRAPLVEELYRFRDRLPEKLRYLADAPQQDPEGNKTMVRFSRKTKQQYVSSEKDGKATGWSAFYVDGKWVEGKK | soluble |
| MGKGLLGKRVAIGGSRKTEEISTIIEKQGGIPVIRPLQGTVYLAEKQVEPDLRTFAEEKADWVIFTTGIGLETLVDMAEKIGLKDEFLQAIRQAKAACRGYKTLSALKKLGITPEASDEDGTTRGLIRSLEPHDFSGKTVMVQLHGEKAPALMAFLEEKGASVLPILPYQHIPPEEETVERLCRELMNDEVDAVCFTTAIQVRSLFDFAKGRGYINEVKKVFEERAIAAAVGKVTAEALREEGITRLLAPEIERMGAMIVELAKYYEEKE | not soluble |
| MGKITGFLEIERHDRKYTPVAERVKHFHEFVVPLTERETRDQAARCMNCGIPYCHGTGSVAPGTPGCPVNNQIPDFNDLVYQGNWEEASRNLHSTNNFPEFTGRICPAPCEASCTLNIDDNPVTIKTIECAIVDRAWDNGWLKPEVASVKTGKKVAVIGSGPAGMACAQQLARAGHDVHLFEKFAKAGGLLRYGIPDFKMEKGIIDRRVKQMEGEGVTFHYNSHVGADGNVDPREMLNEYDAVALTGGAEAPRDLPIPGRDLQGIHYAMDFLPQQNRRVSEEPLNGVTEILAGGKHVVVIGGGDTGSDCIGTSLRQGALSVTQLEIMPAPPERENKGLTWPNWPLKMRTSSSQAEGAIREFAVLTQKFSGENGQVKKLHCVRVDDKFKPIAGTEFELDAELVLLAMGFVHPVHEGLLKLLSVELDPRGNVKANTLDYQTSRPNVFTAGDMRRGQSLVVWAIREGRLCARSIDTFLMGKTDLPRLEHHHHHH | soluble |
| MGKKAKLGHKTGVNKGILLTDRQRLNWLRLLRSENIGAVSFRNLIDHYKTAENALAALPELSRKGGLATSIRIATLEDAEKEMQEAEKLGIRFVGIGEPDYPTFLKVTEASPPLIAIKGNVSVFEKASVGIVGSRNASAAGKKLAAQFAHFLGNADFTIISGLARGIDSIAHQASLQTGTVAVMAGGIDHIYPPENKKLHEDIIANGGAIISEMPIGWKPRAIDFPRRNRIIAGLSLGLLVVEAALQSGSLITARQAAEMGRLTFAIPGSPLDPRSVGTNNLLKDGALLTTHPSDIIETLTPLIPTPTNHQLNFFEELPSLQLEKDCFNSSDKKTKITSFVGDERERRAVLSALSTTPIDLDTLSTNSGVSLSNLYLLLVELELAGKLIRHSGGYVSLSNFDLLQEPPHY | not soluble |
| MGKLFGTDGVRGIVNKELTPELVLKLSKAIGTFFGKNSKILVGRDVRAGGDMLVKIVEGGLLSVGVEVYDGGMAPTPALQYAVKTLGYDGGVVITASHNPAPYNGIKVVDKDGIEIRREKENEIEDLFFTERFNTIEWSSLTTEVKREDRVISTYVNGILSHVDIEKIKKKNYKVLIDPANSVGALSTPLVARALGCKIYTINGNLDPLFSARQPEPTFDSLKETAEVVKTLKVDLGVAHDGDADRAIFIDSEGRVQWGDRSGTLLSYWASVKNPKAIKKIVTAVSSSSLVEEYLSKYNIQVDWTKVGSVDIAHKVADENALAGFEENGGFMYPPHQYVRDGAMSFALMLELLANENVSSAELFDRLPKYYLVKTKVDLKPGLMVEEIYKKILEVYSTSSVKAITIDGVKIIGKDFWFLVRKSGTEPIIRIMAEAKDENVANNLVNELKKIVEGK | soluble |
| MGKLLTMAMPKGRIFEEAAGLLRQAGYRLPEEFEDSRKLIIDVPEENLRFILAKPMDVTTYVEHGVADVGIAGKDVMLEEERDVYEVLDLNISKCHLAVAGLPNTDWSGVAPRIATKYPNVASSYFREQGEQVEIIKLNGSIELAPLIGLADRIVDIVSTGQTLKENGLVETEHICDITSRFIVNPVSYRMKDDVIDEMASRLSLVVEGETAKLEHHHHHH | soluble |
| MGKLMEIIIISGRSGAGKSVALRALEDAGYYCVDNIPLDLLPQLTDILSQSQSSVAISLDIRNIPNSAHSLKQTLSTLQKHHQIKIIFLEADRATLIRRYSDSRRLHPLSLKDLSLEAAIDEEYRYLEPLIQHANLILDTTHLSTHSLAERLREFLRGNSEKELKIIVESFGFKYGIPLDADYVFDVRFLPNPHWDPTLRPMTGLEAPVAEFLNSHTEVNEFIYLTRHYIDTWLPMLEKNNRSYLTIAIGCTGGKHRSVYIAQQLGEYFQAKGKTVKIQHKSLERNKKI | not soluble |
| MGKNRNKNKDKDPYIGPAKTGRNDSDSDDSESSAYTYNEDIQSIMGDVEDMNDVYDQLVDNLDRAQDKNSTTRIDGLHRVNLALTAKPAPEFINRNKETIMAVCSRMANKPDSEAQFLARLVGLVAVQAGEEISEMIAEPMSQMRTILMDASRCVFLRTACATSLAIVTRIACSEDEEVTANAKACRFAWAHTKVSGSANDIGHAKLTINDAVADQPKIVTLLSSNQLEVRLAAAETLAFLHEFMQDARPGFRFPNKEHVLSLLDQMVNDSSKKKTKKDKRAQRYAVRDIRAFIADEDDAPEVNVKIGQQTLSLDSCAIKIFYDTTCDLLHGGLAQQLLHNEVLRDVFDLGPIALEPAESANKQSRLAVHEAADKHRNQVRGKQRDKRSTVY | not soluble |
| MGLEVAADSVGSALAAQDGGAIRVELCGGLDGGGLTPSFGTLAVVRERLQIPLYVLIRPRVGDFVFDAAEVEVMRRDVEQCVRLGCDGVVLGALDPQGQVDLPAMRALIEAAGTLGVTFHRAIDVSADPARVLEDAITLGCERVLTSGARASALEGVETIAALVRQAGERISIMPGAGVSAANVQALRAGTGAREFHASARGPVAAQVHAPHPYITDLGGDYQRTDVARVRSIVQLLQTALEHHHHHH | not soluble |
| MGLLVLGTPLDWPESKKYCDYVRENGIMQFLHMYDTYISKKQDVLLWGDEIECIVVSMDDKSKKARVSLRQEDILNALGKYEETFRHVDFGPVYAALRNETCPKKIDAILSEVAKNPADYVERIGGNSNKDTIEITSSTKPHAQNAVPTFHPEYGRYMLESTPGAPYGSTLKDFTFVEYNMRLRRKIIENHLLPNELPLTITNFFRLGTPGFTDPEVEANGAISRSFFLPDDVINTHVRFPTLTANIRQRRGRKVAMNVPIFFDKNTIKPFHDPTVPWDRNLFPEDANARDGAALDNHIYMDSMGFGMGCCCLQITFQAKSCDEARLLYDQLTPITPLMLALSAGTPAFRGYLADQDCRWNVIAGAVDDRTEEEMKTVPKSRYDSVDLYISNDKRNLPEYNDVPVVINQDCYDKLIKDCIDERLAKHMAHIFSRDPLVIFSDSILQDNSVSNAHFENLNSTNWQSMRFKPPPPGSDIGWRVEFRSMEIQITDFENAAYSIFVVMLSRAILSFNLNLYMPISLVDENMKAAHARDAIHRKKFWFRCNPFPDASTDDESGQFRQLTIDELFNGEHRENGFPGLITIVRSYLYSCNPDAKTICLIERYIRLISQRANGQCLTAASWIRNFITTHPSYKQDSVVNDEINYDLIRRIAKIVDGDYDDTLLGKCS | soluble |
| MGLMHPRQLLTLPNGDVLVVEANSPGTVPITSPKQMIASIVKDRSGKGGKGGNRITLLRKAAGQSGKWEKYVFIENLHSPFGVQLIGDTLYVANTGNIMKYRYTPGETRMSDPGVEFTDLPSTVNHHWTKALLASPDGKKLYVGVGSNSNVAENGLDIEYRRATVLEVDVQSAASRIYASGIRNPTGLGWEPTTGKLWAIVNERDEIGADLVPDYLTSVQEGGFYGWPYSYYGQYVDQRVQPQRPDLVARAIRPDYALGSHVAPLGLWFYQGRNLPEKYHGGAFIGQHGSWNRIPLSGYDVVFVRFKDGKPEGVPEPVVTGFTSADQKTLKGAPVGLAEDAEGALLIADDVGNTIWRVTARGLEHHHHHH | not soluble |
| MGLYAISDLHLAFNLDKPMNIFGEEWSKHDEKIKKNWISKISEEDTVLIAGDISWSMDIENGEEDLNWIDCLPGKKIICKGNHDYWWKSITKLNNMYKSISFLQNNFFEYKDYAICGTRGWIDKSFDSFDEHDKKVYKREIIRLRLSLDAAVKKGYSKFIVMFHYPPFKDENSGSEFTEVLEEYKVEKAIYGHLHGPALKNISGSIVKNGVEYMLTSCDYIEFNPIKIDLKLEHHHHHH | soluble |
| MGMENYNPPQEPWLVILYQDDHIMVVNKPSGLLSVPGRLEEHKDSVMTRIQRDYPQAESVHRLDMATSGVIVVALTKAAERELKRQFREREPKKQYVARVWGHPSPAEGLVDLPLICDWPNRPKQKVCYETGKPAQTEYEVVEYAADNTARVVLKPITGRSHQLRVHMLALGHPILGDRFYASPEARAMAPRLLLHAEMLTITHPAYGNSMTFKAPADFLEHHHHHH | soluble |
| MGMFERDTEIYLDRDALREDYQPENLVGRDTELNRYRAALQPVINGEQPNNIFLYGKTGVGKTAGTRYLIDHLEEDAAKYEDIDLTVKMLNCDGLSSSYQIATRLVNEFRDETSQISTTGYPRATVYDMLWTELDSCGGTIYIVLDEVDHIEDDSILYQLPRARANDNLSSAKIGIIGISNDFSFRDDLSPKVKSSLCEEEIQFPA | not soluble |
| MGMIIMVGDGMGPAYTSAYRYFQDNPDTEEIEQTVFDRLLVGMASTYPARESGYVTDSAASATALATGFKSYNGAIAVDINKRPLTTIMQMAKARGMSTGVAVTAQVNHATPAAFLTHNESRKNYEAIAADMLKSDADVILGGGRKYFSEALVSQFSAKGYQHITELAQLDSITQPKVLGLFAEVQLPWVIDDTDANTLSKLTQKSLDLLSQNEKGFVLLVEGSLIDWAGHNNDIATAMAEMQGFANAIEVVEQYIRQHPDTLLVVTADHNTGGLSIGANGEYQWDTKLPKGISASPASIATHAIAADDWQAGVNQQLGFDVNSTELQQLTNARMQGKSTLEVALKKIIDTRSYTGWTTSGHTGVDVQVFAMGPAADLFKGNQDNTHIAEKMMSLLPKVN | soluble |
| MGNGMTKVLPGLYLGNFIDAKDLDQLGRNKITHIISIHESPQPLLQDITYLRIPVADTPEVPIKKHFKECINFIHCCRLNGGNCLVHCFAGISRSTTIVTAYVMTVTGLGWRDVLEAIKATRPIANPNPGFRQQLEEFGWASSQKLRRQLEERFGESPFRDEEELRALLPLCKRCRQGSATSASSAGPHSAASEGTVQRLVPRTPREAHRPLPLLARVKQTFSCLPRCLSRKGGK | soluble |
